{
  "source": "paper PMC11274412",
  "about": "“Characterization of Receptor Binding Affinity for Vascular Endothelial Growth Factor with Interferometric Imaging Sensor” (Biosensors, 2024)",
  "binders": {"B1": {"name": "Recombinant human VEGF165 protein (ligand)", "chain": "APMAEGGGQNHHEVVKFMDVYQRSYCHPIETLVDIFQEYPDEIEYIFKPSCVPLMRCGGCCNDEGLECVPTEESNITMQIMRIKPHQGQHIGEMSFLQHNKCECRPKKDRARQENPCGPCSERRKHLFVQDPQTCKCSCKNTDSRCKARQLELNERTCRCDKPRR", "modifications": "disulfide-linked homodimer; N-glycosylated (HEK293 expressed); limits are the conventional mature VEGF165 (191-aa precursor minus 26-aa signal) / human IgG1 Fc (C-terminal, dimerizing …)"}},
  "key": {"Aflibercept (Eylea) [1]": {"molecular_target": "T1, Aflibercept (Eylea)", "T1 chain": "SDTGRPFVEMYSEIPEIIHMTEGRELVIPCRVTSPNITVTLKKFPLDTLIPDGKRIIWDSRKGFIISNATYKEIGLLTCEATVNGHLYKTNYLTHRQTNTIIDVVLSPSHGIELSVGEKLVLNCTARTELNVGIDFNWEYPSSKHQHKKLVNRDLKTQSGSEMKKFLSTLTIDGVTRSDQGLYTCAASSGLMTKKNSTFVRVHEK", "assay": "Interferometric Reflectance Imaging Sensor (IRIS); equilibrium IRIS signal on drug spots against VEGF concentration, fitted with the Langmuir isotherm", "settings": "both partners purified"}, "Aflibercept (Eylea) [2]": {"molecular_target": "T1, Aflibercept (Eylea)", "assay": "Interferometric Reflectance Imaging Sensor (IRIS); equilibrium IRIS signal on drug spots against VEGF concentration, fitted with the Langmuir-Freundlich isotherm", "settings": "both partners purified"}},
  "data": [
    {"binder": "B1", "values": [
      {"measurement": "Ka", "setting": "Aflibercept (Eylea) [1]", "value": "1.05e+09", "unit": "M⁻¹"},
      {"measurement": "Kd", "setting": "Aflibercept (Eylea) [1]", "value": 17.5, "unit": "nM"},
      {"measurement": "Ka", "setting": "Aflibercept (Eylea) [2]", "value": "1.5e+08", "unit": "M⁻¹"},
      {"measurement": "Kd", "setting": "Aflibercept (Eylea) [2]", "value": 66, "unit": "nM"}
    ]}
  ]
}
